{"source": "patent EP2330125A2", "key": {"[1]": {"biological_target": "CGRP receptor (Homo sapiens (Human)) (UniProt Q16602)", "test": "125I-hCGRP displacement, SK-N-MC membranes"}, "[2]": {"biological_target": "neuropeptide Y2 receptor (UniProt P49146)", "sequence (P49146 whole entry)": "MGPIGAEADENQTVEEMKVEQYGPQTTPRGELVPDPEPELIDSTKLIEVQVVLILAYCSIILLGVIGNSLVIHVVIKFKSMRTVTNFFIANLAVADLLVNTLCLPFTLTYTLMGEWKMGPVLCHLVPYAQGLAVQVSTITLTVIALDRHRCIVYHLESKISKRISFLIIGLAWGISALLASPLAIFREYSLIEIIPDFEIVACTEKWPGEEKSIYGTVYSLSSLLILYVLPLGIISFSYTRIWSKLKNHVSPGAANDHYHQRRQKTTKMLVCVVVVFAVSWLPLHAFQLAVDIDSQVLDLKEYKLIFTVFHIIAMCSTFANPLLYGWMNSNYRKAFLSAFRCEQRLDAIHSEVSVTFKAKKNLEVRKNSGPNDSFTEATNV", "test": "[125I]-human PYY displacement, SK-N-BE membranes"}, "[3]": {"biological_target": "calcitonin receptor", "sequence (P30988 whole entry)": "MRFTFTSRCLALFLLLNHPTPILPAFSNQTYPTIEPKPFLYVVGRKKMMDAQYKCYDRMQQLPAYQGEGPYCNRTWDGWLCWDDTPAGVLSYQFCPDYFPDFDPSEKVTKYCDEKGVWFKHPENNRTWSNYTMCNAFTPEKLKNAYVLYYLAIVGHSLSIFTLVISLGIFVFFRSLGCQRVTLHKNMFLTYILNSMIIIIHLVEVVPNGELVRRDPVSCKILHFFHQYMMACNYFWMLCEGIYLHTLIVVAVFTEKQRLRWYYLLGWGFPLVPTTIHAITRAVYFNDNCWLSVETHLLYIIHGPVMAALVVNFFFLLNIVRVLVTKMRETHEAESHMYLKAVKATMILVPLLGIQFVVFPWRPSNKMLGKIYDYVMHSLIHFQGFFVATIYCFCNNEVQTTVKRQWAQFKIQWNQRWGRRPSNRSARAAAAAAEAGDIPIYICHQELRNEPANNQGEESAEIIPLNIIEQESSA", "test": "calcitonin receptor binding assay"}, "[4]": {"biological_target": "calcitonin receptor", "test": "cell-based or functional assay"}}}
{"substance": "27(p-CH2SO3)-PheCCK8(26-33),G,K,R,15Glu,hAmy(1-17),18Arg,sCT(18-26),hAmy(32-37) (peptide)", "values": [{"measurement": "Receptor Binding", "setting": "[1]", "value": 4.4}]}
{"substance": "Human NPY (peptide)", "values": [{"measurement": "Receptor Binding", "setting": "[2]", "value": 0.2}]}
{"substance": "Rat amylin (peptide)", "values": [{"measurement": "Receptor Binding", "setting": "[1]", "value": 21}]}
{"substance": "[#Cys-Gly-Gly-PYY (3-36), amide] [Asp(#)-Pro-Pro-Pro-Pro-Pro-Pro-PYY (3-36), amide] (peptide)", "values": [{"measurement": "Receptor Binding", "setting": "[2]", "value": 0.8}]}
{"substance": "[#Cys-Gly-Gly-PYY (3-36), amide] [Asp(#)-miniPEG3-Gly-PYY (3-36), amide] (peptide)", "values": [{"measurement": "Receptor Binding", "setting": "[2]", "value": 0.8}]}
{"substance": "[#Des-Lys1 Compound 10, amide] (Asp(#)-Pro-Pro-Pro-Pro-Pro-Pro-PYY (3-36), amide (peptide)", "values": [{"measurement": "Receptor Binding", "setting": "[2]", "value": 0.5}]}
{"substance": "[#NH-Cys-(bAla)-PYY-(3-36), amide] [#Suc-(bAla)-PYY-(3-36), amide] (peptide)", "values": [{"measurement": "Receptor Binding", "setting": "[2]", "value": 1.2}]}
{"substance": "[#NH-Cys-(bAla)-PYY-(3-36), amide] [#Suc-(bAla)-PYY-(3-36), amide] (peptide; modification not given)", "values": [{"measurement": "Receptor Binding", "setting": "[3]", "value": 643}, {"measurement": "CT cyclase", "setting": "[4]", "value": 2270}]}
{"substance": "[#Suc-(bAla)-PYY-(3-36), amide] [#NH-Des-Lys1-Rat Amylin, amide] (peptide)", "values": [{"measurement": "Receptor Binding", "setting": "[2]", "value": 0.39}]}
{"substance": "[Ac-alpha-MSH-bAla-bAla-PYY-(3-36); amide] (peptide)", "values": [{"measurement": "Receptor Binding", "setting": "[2]", "value": 0.2}]}
{"substance": "[Asp(#)-miniPEG-Gly-PYY (3-36), amide] [#Cys-Gly-Gly-PYY (3-36), amide] (peptide)", "values": [{"measurement": "Receptor Binding", "setting": "[2]", "value": 0.8}]}
